Results from paper PMC4872106, “The evolutionary pathway from a biologically inactive polypeptide sequence to a folded, active structural mimic of DNA” (Nucleic Acids Research, 2016).

Tests used:
[1] = target: T1, M.EcoKI (the M2S1 methyltransferase core of the EcoKI Type I RM enzyme) (E. coli, UniProt P08957 1-529; P05719 1-464); experiment: ITC; as described in ref. 15 but in 20 mM HEPES buffer, pH 7.0; heat of interaction plotted against the molar ratio of Ocr dimer to M.EcoKI; settings: both partners purified
T1 construct: M subunit (HsdM) of the Type I restriction/modification enzyme EcoKI of E. coli; S subunit (HsdS) of the Type I restriction/modification enzyme EcoKI of E. coli; In the in vivo antimodification assay M.EcoKI is endogenous in E. coli NM1057; also called M2S1 complex; copies: 2 + 1
T1 sequence 1: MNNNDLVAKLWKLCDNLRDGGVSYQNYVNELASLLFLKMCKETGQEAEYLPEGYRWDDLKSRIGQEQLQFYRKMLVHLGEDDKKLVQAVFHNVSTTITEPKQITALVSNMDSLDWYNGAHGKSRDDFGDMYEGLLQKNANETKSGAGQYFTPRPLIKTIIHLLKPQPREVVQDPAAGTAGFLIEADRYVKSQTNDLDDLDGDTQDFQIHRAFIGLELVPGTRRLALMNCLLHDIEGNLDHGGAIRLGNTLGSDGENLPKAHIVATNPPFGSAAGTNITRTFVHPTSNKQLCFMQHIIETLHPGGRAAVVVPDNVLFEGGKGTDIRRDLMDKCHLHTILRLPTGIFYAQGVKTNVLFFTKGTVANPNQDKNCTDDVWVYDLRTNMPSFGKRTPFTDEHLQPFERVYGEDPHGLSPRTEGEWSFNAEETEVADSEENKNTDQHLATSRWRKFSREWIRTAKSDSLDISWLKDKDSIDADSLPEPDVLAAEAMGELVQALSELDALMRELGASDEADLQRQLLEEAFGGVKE
T1 sequence 2: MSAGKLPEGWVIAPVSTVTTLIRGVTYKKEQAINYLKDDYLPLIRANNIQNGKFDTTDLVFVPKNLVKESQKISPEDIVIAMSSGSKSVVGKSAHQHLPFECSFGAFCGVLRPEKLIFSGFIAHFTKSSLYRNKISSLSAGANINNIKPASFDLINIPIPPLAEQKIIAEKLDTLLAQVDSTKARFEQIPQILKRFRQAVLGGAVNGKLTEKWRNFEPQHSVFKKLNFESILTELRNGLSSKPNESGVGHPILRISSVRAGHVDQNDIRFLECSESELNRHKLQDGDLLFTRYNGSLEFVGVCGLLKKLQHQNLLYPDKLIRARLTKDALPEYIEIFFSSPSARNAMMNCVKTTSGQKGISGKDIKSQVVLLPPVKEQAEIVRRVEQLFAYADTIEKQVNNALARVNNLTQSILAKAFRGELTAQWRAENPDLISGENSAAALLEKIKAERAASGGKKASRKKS

[2] = target: T1, M.EcoKI (the M2S1 methyltransferase …); experiment: cell-based or functional assay
[3] = target: EcoKI Type I restriction/modification enzyme (R2M2S1) (E. coli, UniProt P08956 1-1170; P08957 1-529; P05719 1-464); experiment: cell-based or functional assay
EcoKI Type I restriction/modification enzyme (R2M2S1), sequence (P08956 whole entry, one chain of several): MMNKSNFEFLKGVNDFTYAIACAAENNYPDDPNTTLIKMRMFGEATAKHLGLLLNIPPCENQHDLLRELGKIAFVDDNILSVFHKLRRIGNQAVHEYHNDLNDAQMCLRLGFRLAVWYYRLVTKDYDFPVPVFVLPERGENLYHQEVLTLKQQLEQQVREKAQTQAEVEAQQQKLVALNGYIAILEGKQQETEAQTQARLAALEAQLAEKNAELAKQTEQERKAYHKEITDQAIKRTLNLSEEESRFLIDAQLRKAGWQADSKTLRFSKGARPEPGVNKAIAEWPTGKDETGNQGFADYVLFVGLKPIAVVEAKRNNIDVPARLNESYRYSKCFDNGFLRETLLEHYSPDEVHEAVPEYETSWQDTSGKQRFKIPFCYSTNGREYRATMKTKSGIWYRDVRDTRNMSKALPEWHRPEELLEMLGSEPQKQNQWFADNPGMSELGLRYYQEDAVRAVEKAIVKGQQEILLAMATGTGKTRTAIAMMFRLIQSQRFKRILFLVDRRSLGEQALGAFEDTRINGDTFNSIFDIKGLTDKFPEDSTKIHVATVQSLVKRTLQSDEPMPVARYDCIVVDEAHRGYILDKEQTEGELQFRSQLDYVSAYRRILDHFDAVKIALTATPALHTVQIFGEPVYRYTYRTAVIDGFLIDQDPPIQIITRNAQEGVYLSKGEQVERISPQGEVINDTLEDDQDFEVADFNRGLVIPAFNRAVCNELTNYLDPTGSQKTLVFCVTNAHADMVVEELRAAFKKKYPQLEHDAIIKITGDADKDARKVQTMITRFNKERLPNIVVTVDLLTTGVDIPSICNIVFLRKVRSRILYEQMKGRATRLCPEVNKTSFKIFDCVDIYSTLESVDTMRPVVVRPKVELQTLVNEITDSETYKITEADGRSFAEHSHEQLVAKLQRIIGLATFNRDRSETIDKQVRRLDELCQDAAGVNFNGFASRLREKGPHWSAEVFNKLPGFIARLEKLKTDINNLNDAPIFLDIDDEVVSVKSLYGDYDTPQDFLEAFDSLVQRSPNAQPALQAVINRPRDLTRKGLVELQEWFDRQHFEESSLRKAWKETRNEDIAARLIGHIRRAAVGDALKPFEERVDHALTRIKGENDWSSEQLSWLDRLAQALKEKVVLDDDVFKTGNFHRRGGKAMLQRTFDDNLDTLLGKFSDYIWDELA

B1: Ocr (overcome classical restriction) from bacteriophage T7, wild type (natural protein, UniProt P03775 1-117, looked up)
chain: MAMSNMTYNNVFDHAYEMLKENIRYDDIRDTDDLHDAIHMAADNAVPHYYADIFSVMASEGIDLEFEDSGLMPDTKDVIRILQARIYEQLTIDLWEDAEDLLNEYLEEVEEYEEDEE
notes: Ocr, product of bacteriophage T7 gene 0.3; homodimer of a polypeptide of 116 amino acids (34 acidic and 6 basic residues per monomer); also called wild-type Ocr; gene 0.3 protein
[1]
  stoichiometry N: 1 Ocr dimer per M.EcoKI
[2]
  in vivo antimodification: efficiency of plating on E. coli NM1041 (r+m+) relative to NM1057 (r-m+) of phage lambda v.o recovered from NM1057 expressing Ocr (vector alone 1): 0.00014 eop
[3]
  in vivo antirestriction: efficiency of plating of phage lambda v.o on E. coli NM1049(DE3) (r+m+, EcoKI) relative to NM1261(DE3) (r-m-), strains expressing Ocr (vector alone 5x10^-5): 4 eop
